Data set [1] deals with the molecule itself. As to the kind of experiment: dimerisation, gel mobility shift on DR12 probe (not shown).
Data set [2] deals with the molecule itself. As to the kind of experiment: homodimerisation, gel mobility shift on 4DR12 probe; bands assigned with Superdex 200 fractions. An excerpt:
Arrows show time of addition of methyl epoxyfarnesoate or EtOH carrier.
Nuclear extracts were isolated from Sf9 cells as previously described Jones et al. (2001) Insect Biochem. Mol. Biol. 32, 33-49; Jones et al (1998) Biochem. J. 335, 79-84; 79-84; Jones et al. (2000) Biochem. J. 346, 233-240. For the DR12 probe, the double stranded DR12 oligonucleotide (sequence as shown above) was 5′ end-labelled with ³²P by T4 polynucleotide kinase (New England Biolabs Inc.), and then purified from a 20% native polyacrylamide gel. The same double stranded DR12 oligonucleotide was used in 100-fold excess as a self competitor. For the 4DR12Core probe, the 4DR12Core sequence was liberated from the vector as a 148-bp ClaI/HindIII fragment, and was 5′ end-labelled with ³²P and purified. The same, unlabelled fragment was used at 100-fold excess as a self competitor. As a negative control for specificity in gel shifts, the 36 bp BglII/KpnI polylinker region fragment of the pGL3 vector was liberated and recovered from low melting point agarose gels and used as a 100 nonself competitor (sequence: […], SEQ ID NO: 17). […]

In data set [3] the target is T1, USP (ultraspiracle) wild-type (Drosophila melanogaster, UniProt P20153 SEQ:1-508).
T1 sequence: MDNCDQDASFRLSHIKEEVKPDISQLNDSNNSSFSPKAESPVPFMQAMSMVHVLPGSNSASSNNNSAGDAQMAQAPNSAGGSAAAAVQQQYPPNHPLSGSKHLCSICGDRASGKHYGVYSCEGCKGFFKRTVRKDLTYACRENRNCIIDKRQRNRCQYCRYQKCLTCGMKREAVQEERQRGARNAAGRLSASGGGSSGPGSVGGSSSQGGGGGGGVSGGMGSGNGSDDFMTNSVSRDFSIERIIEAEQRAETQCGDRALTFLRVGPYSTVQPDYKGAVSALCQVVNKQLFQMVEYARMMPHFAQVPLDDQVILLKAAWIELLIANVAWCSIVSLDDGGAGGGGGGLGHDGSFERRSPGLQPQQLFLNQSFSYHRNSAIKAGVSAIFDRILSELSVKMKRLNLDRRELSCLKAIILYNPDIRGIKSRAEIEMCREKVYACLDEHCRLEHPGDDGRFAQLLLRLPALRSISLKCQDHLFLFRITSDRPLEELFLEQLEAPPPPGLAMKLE
As to the kind of experiment: competition; 100x nonself competitor, specificity control. Conditions: tags: His-tag, pET32EK (Novagen); chain copies: monomer and homodimer (stated). On the procedure: (§1) Control competitions with self and nonself unlabelled excess probes confirmed the specificity of binding. […] (B) The homodimer-enriched fraction of each receptor preparation was then analyzed for binding to […] methyl epoxyfarnesoate, using an intrinsic fluorescence assay method that tracks ligand binding (by suppression in receptor fluorescence) Jones et al., (2000) Insect Biochem. Mol. Biol. 30, 671-679; Jones et al. (2001), Insect Biochem. Mol. Biol. 32, 33-49. […] Arrows show time of addition of methyl epoxyfarnesoate or EtOH carrier.
(§2) Nuclear extracts were isolated from Sf9 cells as previously described Jones et al. (2001) Insect Biochem. Mol. Biol. 32, 33-49; Jones et al (1998) Biochem. J. 335, 79-84; 79-84; Jones et al. (2000) Biochem. J. 346, 233-240. For the DR12 probe, the double stranded DR12 oligonucleotide (sequence as shown above) was 5′ end-labelled with ³²P by T4 polynucleotide kinase (New England Biolabs Inc.), and then purified from a 20% native polyacrylamide gel. The same double stranded DR12 oligonucleotide was used in 100-fold excess as a self competitor. For the 4DR12Core probe, the 4DR12Core sequence was liberated from the vector as a 148-bp ClaI/HindIII fragment, and was 5′ end-labelled with ³²P and purified. The same, unlabelled fragment was used at 100-fold excess as a self competitor. […]

In another data set the target is T2, USP C472A/H475L (Drosophila melanogaster, UniProt P20153 SEQ:1-508, C472A/H475L).
T2 sequence: T1 sequence with C472A, H475L
The data set is described as above. To be noted: tags: His-tag, pET32EK (Novagen); chain copies: monomer and homodimer (stated). On the procedure: as §1, §2

Changes are numbered by the printed parent chain. Names and notes keep the numbering of the source.

Results on four molecules are retold here after patent US20050054569A1, “Mutants and assay system to identify USP/RXR ligands” (published 2005).

B1: His-tagged wild-type Drosophila melanogaster USP (bacterially overexpressed) (receptor)
chain: T1 sequence
notes: Full-length dUSP cloned into pET32EK, purified on nickel resin and Superdex 200; also called wild-type dUSP; His-dUSP fusion protein; not shown: His tag / fusion part from the vector pET32EK
On to B1, for which the binding result in data set [1] is recorded as “binds”.

B2: His-tagged mutant dUSP Cys472Ala/His475Leu (bacterially overexpressed) (receptor)
chain: T1 sequence with C472A, H475L
notes: also called C472A/H475L; double mutant dUSP; not shown: His tag / fusion part from the vector pET32EK
B2: the binding result in data set [2] is “binds”.

B3: P498W/P499W mutant USP (receptor, not shown: small tags and cut ends)
chain: T1 sequence with P498W, P499W
notes: Two prolines at the end of alpha-helix 12 replaced by tryptophan
With B3, the binding result in data set [1] is “binds”.

B4: pGL3 polylinker (nonself) (dsDNA)
DNA 1: GGTACCGAGCTCTTACGCGTGCTAGCCCGGGCTCGA
DNA 2: TCGAGCCCGGGCTAGCACGCGTAAGAGCTCGGTACC
B4: the binding result (in data set [3]; with USP C472A/H475L) was “no binding” throughout.
